Experimental data from patent US20100144530A1, “IDENTIFICATION OF A NEW CLASS OF EPSP SYNTHASES” (priority 2005, published 2010).

B1: grg6: EPSP synthase ORF from Pseudomonas syringae pv. tomato strain DC3000, in plasmid pAX703 (SEQ ID NO:1/2) (protein)
chain: MRPQATLTVMPVERPLVGRVSPPGSKSITNRALLLAGLAKGTSRLTGALKSDDTRVMSEALRLMGVQVDEPDDSTFVVTSSGHWQAPQQALFLGNAGTATRFLTAALANFEGDFVVDGDEYMRKRPIGPLVDALQRMGVEISAPSGCPPVAIKGKGGLQAGRIEIDGNLSSQYVSALLMAGACGKGSLEVALTGSEIGARGYVDLTLAAMQAFGAEVQAIGDAAWKVSATGYHATDFHIEPDASAATYLWAAQALTEGNIDLGVASDAFTQPDALASQIIDSFPNMPAVIDGSQMQDAIPTLAVLAAFNRQPVRFVGIANLRVKECDRISALCDGLCAIAPGLAVEEGDDLIVHANPALAGTTVNALIDTHSDHRIAMCFALAGLKIKGIHIQDPDCVAKTYPGYWDALASLGVSVQR
B2: grg9: EPSP synthase ORF from Agrobacterium tumefaciens strain C58, in plasmid pAX702 (SEQ ID NO:3/4) (protein)
chain: MIELTITPPGHPLSGKVEPPGSKSITNRALLLAGLAKGKSHLSGALKSDDTLYMAEALREMGVKVTEPDATTFVVEGTGVLQQPEKPLFLGNAGTATRFLTAAGALVDGAVIIDGDEHMRKRPILPLVQALRALGVEADAPTGCPPVTVRGKGMGFPKGSVTIDANLSSQYVSALLMAAACGDKPVDIILKGEEIGAKGYIDLTTSAMEAFGAKVERVSNAIWRVHPTGYTATDFHIEPDASAATYLWGAELLTGGAIDIGTPADKFTQPDAKAYEVMAQFPHLPAEIDGSQMQDAIPTIAVIAAFNETPVRFVGIANLRVKECDRIRAVSLGLNEIREGLAHEEGDDLIVHADPSLAGQTVDASIDTFADHRIAMSFALAALKIGGIAIQNPACVAKTYPGYWKALASLGVDYTEKESAAEPQH

Test system: ΔaroA E. coli cells
Assay: Complementation of ΔaroA E. coli cells (functional EPSP synthase)
Type: cell-based
Conditions: plasmid transformed into ΔaroA E. coli cells

Molecule	Complementation of the aroA deletion
B1	complement the deletion
B2	complement the deletion
